Data published in patent US20040018971A1 (published 2004).

What was measured:
HLA-A*0301 = target: T1, HLA-A*0301 (human); test: competition with 125I-labelled standard peptide for purified HLA, gel filtration
T1 construct: also called A3

HLA-A*3301 = target: T2, HLA-A*3301 (human); test: as above
T2 construct: The construct is not described

HLA-A*1101 = target: T3, HLA-A*1101 (human); test: as above
T3 construct: The construct is not described

HLA-A*3101 = target: T4, HLA-A*3101 (human); test: as above
T4 construct: The construct is not described

HLA-A*6801 = target: T5, HLA-A*6801 (human); test: as above
T5 construct: The construct is not described

HLA-DR3 = HLA-DR3 (human); test: competitive inhibition of 125I-labeled probe peptide binding to purified HLA-DR3
[1] = target: HLA-A*1101 (purified HLA class I molecule) (human); test: inhibition of 125I probe peptide binding to purified HLA; ratio to standard peptide
[2] = target: HLA-A*3101 (purified HLA class I molecule) (human); test: as above
[3] = target: HLA-A*6801 (purified HLA class I molecule) (human); test: as above
[4] = target: T6, HLA-A*0301 (purified HLA class I molecule) (human); test: as above
T6 construct: also called A3

[5] = target: HLA-A*3301 (purified HLA class I molecule) (human); test: inhibition of 125I probe peptide binding to purified HLA; ratio to standard peptide; minus sign not explained

B1: HER2/neu peptide, position 322, 9 amino acids (peptide)
peptide: VTAEDGTQR
notes: Synthetic peptide; also called Her2/neu.322 (9-mer)
In the case of B1, the relative binding ratio (HLA-A*0301) is reported as 0.0002 ratio (IC50 of standard peptide / IC50 of test peptide), the relative binding ratio (HLA-A*3301) is reported as 0.0037 ratio (IC50 of standard peptide / IC50 of test peptide) and the relative binding ratio (HLA-A*1101) is reported as 0.014 ratio (IC50 of standard peptide / IC50 of test peptide). For the same binder, the relative binding ratio (HLA-A*3101) was 0.0011 ratio (IC50 of standard peptide / IC50 of test peptide) and the relative binding ratio (HLA-A*6801) was 0.1 ratio (IC50 of standard peptide / IC50 of test peptide).

With ARLLDIDETEYHADG [Her2/neu.867] the IC50 (HLA-DR3) was under 1 µM.

With GSGAFGTVYK (also called Her2/neu.727 (10-mer)) [HER2/neu peptide, position 727, 10 amino acids] the relative binding ratio [1] was 0.13 ratio (IC50 standard / IC50 test), the relative binding ratio [2] was 0.0014 ratio (IC50 standard / IC50 test) and the relative binding ratio [3] was 0.0012 ratio (IC50 standard / IC50 test). For the same binder, the relative binding ratio [4] was 0.066 ratio (IC50 standard / IC50 test) and the relative binding ratio [5] was -0.0013 ratio (IC50 standard / IC50 test).
